The supplement of paper PMC7877785
± gives the uncertainty stated by the source.

Experiment: self-splicing fitness, log relative to wild type (ln ratio); higher = more splicing; Tetrahymena group I intron in knt gene, E. coli kanamycin selection, DiMSum; sequences stand for … in CUCUCU…GGAGGGAAAAGUUAUCAGGCAUGCACCUGGUAGCUAGUCUUUAAACCAAUAGAUUGCAUCGGUUUAAAAGGCAAGACCGUCAAAUUGCGGGAAAGGGGUCAACAGCCGUUCAGUACCAAGUCUCAGGGGAAACUUUGAGAUGGCCUUGCAAAGGGUAUGGUAAUAAGCUGACGGACAUGGUCCUAACCACGCAGCCAAGUCCUAAGUCAACAGAUCUUCUGUUGAUAUGGAUGCAGUUCACAGACUAAAUGUCGGUCGGGGAAGAUGUAUUCUUCUCAUAAGAUAUAGUCGGACCUCUCCUUAAUGGGAGCUAGCGGAUGAAGUGAUGCAACACUGGAGCCGCUGGGAACUAAUUUGUAUGCGAAAGUAUAUUGAUUAGUUUUGGAGUACUCGUGGUCG
How it was run: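 Library with all eight P1ex-region intron nucleotides randomised, intron inside the knt kanamycin-resistance gene on pET-22b(+), in E. coli BL21(DE3). Cells grew overnight at 37°C or 30°C on LB agar with or without 25 μg/mL kanamycin (plus 100 μg/mL carbenicillin, 50 μM IPTG, 0.2% rhamnose), in six replicate transformations. Pooled colonies were amplicon-sequenced on Illumina HiSeq 2500. DiMSum fitness is the error-weighted combination of wild-type-normalised replicate fold changes, kanamycin versus none.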

Sequence	self-splicing fitness (ln) (30 °C)	self-splicing fitness (ln) (37 °C)
GGUGAGCAAUAUUACGUAAU	-1.71 ± 0.27	-0.991 ± 0.31
AUUCAGCAAUAUUACGACCG	0.174 ± 0.18	-0.187 ± 0.27
CAACAGCAAUAUUACGGAAA	-3.2 ± 0.17	-2.27 ± 0.18
GGACAGCAAUAUUACGCAGU	-4.28 ± 0.36	-1.5 ± 0.24
CAACAGCAAUAUUACGGUGC	-3.12 ± 0.12	-2.8 ± 0.16
UGUCAGCAAUAUUACGGAAC	-3.82 ± 0.2	-2.23 ± 0.3
AACAAGCAAUAUUACGCUUC	-4.57 ± 0.3	-2.75 ± 0.26
CGUUAGCAAUAUUACGACUU	-1.03 ± 0.12	-0.0418 ± 0.17
CUUCAGCAAUAUUACGAAGG	-2.06 ± 0.13	-1.08 ± 0.18
AACAAGCAAUAUUACGAACG	-1.33 ± 0.11	-0.418 ± 0.13
GUCUAGCAAUAUUACGGUAG		-1.54 ± 0.26
AAAGAGCAAUAUUACGAGGU	-4.63 ± 0.26	-2.82 ± 0.19
GCUGAGCAAUAUUACGCCGA		-1.38 ± 0.32
UCCUAGCAAUAUUACGUGUU	-3.7 ± 0.21	-2.94 ± 0.19
CUGUAGCAAUAUUACGGCCG	-0.368 ± 0.13	0.257 ± 0.16
CACGAGCAAUAUUACGUCGC	-2.82 ± 0.33	-2.69 ± 0.41
UACUAGCAAUAUUACGCCUG	-0.00481 ± 0.11	1.03 ± 0.14
AUACAGCAAUAUUACGUCCC	-0.874 ± 0.14	-0.261 ± 0.18
UUUGAGCAAUAUUACGUGUC	-4.05 ± 0.42	-2.79 ± 0.27
GCCAAGCAAUAUUACGUGCG	-2 ± 0.089	-0.737 ± 0.1
ACAUAGCAAUAUUACGCCCG	-0.76 ± 0.16	-0.298 ± 0.15
AAGGAGCAAUAUUACGGAAU	-3.44 ± 0.25	-2.71 ± 0.26
GAAGAGCAAUAUUACGUACU	-2.11 ± 0.15	-0.163 ± 0.13
ACUCAGCAAUAUUACGUGCA	-0.681 ± 0.095	-0.372 ± 0.11
CGUUAGCAAUAUUACGUUCG	-1.38 ± 0.091	-1.02 ± 0.13
AUGCAGCAAUAUUACGAGAC	-3.17 ± 0.29	-2.59 ± 0.33

Sequence	self-splicing fitness (ln) (30 °C)	self-splicing fitness (ln) (37 °C)
CGAGAGCAAUAUUACGCACC	-1.83 ± 0.28	-2 ± 0.34
GUGAAGCAAUAUUACGAGGA		-0.805 ± 0.32
GGGGAGCAAUAUUACGUGAA	-2.71 ± 0.085	-1.81 ± 0.12
CACGAGCAAUAUUACGAGUU	-4.28 ± 0.18	-2.2 ± 0.12
CCUUAGCAAUAUUACGCGGU	-3.78 ± 0.36	
CGAGAGCAAUAUUACGAGGU	-3.16 ± 0.21	-2.02 ± 0.22
GCCUAGCAAUAUUACGUCGA	-1.67 ± 0.17	-1.6 ± 0.21
UACUAGCAAUAUUACGAGUG	-1.07 ± 0.083	-0.536 ± 0.1
GAUCAGCAAUAUUACGUCAC	-3.88 ± 0.2	-2.13 ± 0.15
GCUUAGCAAUAUUACGUGUG	-1.91 ± 0.054	-1.14 ± 0.066
CAGUAGCAAUAUUACGUGUU	-3.39 ± 0.22	-2.78 ± 0.19
AGUCAGCAAUAUUACGUCCA	-1.25 ± 0.13	-1.05 ± 0.15
CCUUAGCAAUAUUACGGCUC	-3.72 ± 0.21	-3.45 ± 0.39
GGCUAGCAAUAUUACGCACC	-1.61 ± 0.24	-1.78 ± 0.26
UAUAAGCAAUAUUACGUGCA	-0.333 ± 0.085	-0.0529 ± 0.1
UAACAGCAAUAUUACGUGAA	-1.61 ± 0.065	-0.749 ± 0.083
UACGAGCAAUAUUACGUGCA	-3.16 ± 0.19	-1.32 ± 0.13
CAGCAGCAAUAUUACGCCUU	-0.761 ± 0.097	-0.274 ± 0.1
CACGAGCAAUAUUACGCGCA	-3.24 ± 0.18	-2.52 ± 0.14
UGAGAGCAAUAUUACGGGAU		-1.77 ± 0.37
GUGCAGCAAUAUUACGGGAG	-2.01 ± 0.12	-1.44 ± 0.13
AUUAAGCAAUAUUACGGUCU	-0.183 ± 0.15	0.0171 ± 0.15
CAUUAGCAAUAUUACGGGUU	-2.27 ± 0.11	-0.829 ± 0.12
CAUGAGCAAUAUUACGAGAC	-3.32 ± 0.32	-1.35 ± 0.3
AUUAAGCAAUAUUACGUUAC	-2.99 ± 0.26	-1.16 ± 0.27
GAUCAGCAAUAUUACGUUGC	-2.84 ± 0.27	-3.1 ± 0.31

Sequence	self-splicing fitness (ln) (30 °C)	self-splicing fitness (ln) (37 °C)
UUAUAGCAAUAUUACGCCUC	-2.77 ± 0.39	-1.59 ± 0.3
CGAGAGCAAUAUUACGUCCA		-3.02 ± 0.43
CUUCAGCAAUAUUACGCAAG	-4.31 ± 0.26	-1.81 ± 0.2
GAUUAGCAAUAUUACGUGGU	-2.61 ± 0.18	-2.47 ± 0.2
CCCAAGCAAUAUUACGUGUU	-4.07 ± 0.18	-2.46 ± 0.13
AACAAGCAAUAUUACGCGAG	-1.58 ± 0.072	-0.559 ± 0.067
CUACAGCAAUAUUACGCCUA	-2.46 ± 0.18	-3.31 ± 0.28
AGAUAGCAAUAUUACGUCAC	-1.17 ± 0.27	-2.78 ± 0.48
AAACAGCAAUAUUACGUGCG	-1.52 ± 0.053	-0.389 ± 0.065
GCGCAGCAAUAUUACGUACG	-3.47 ± 0.2	-1.09 ± 0.16
UUCAAGCAAUAUUACGCUCC	-1.54 ± 0.16	-1.86 ± 0.24
AGAGAGCAAUAUUACGCGUA	-2.46 ± 0.27	-2.08 ± 0.48
CUUAAGCAAUAUUACGGUCU	-4.28 ± 0.26	-2.64 ± 0.29
UUACAGCAAUAUUACGCACU	-0.534 ± 0.12	-0.572 ± 0.14
UUCGAGCAAUAUUACGAGCG	-3.41 ± 0.4	-1.47 ± 0.2
AGUAAGCAAUAUUACGGAUU	-1.92 ± 0.13	-0.84 ± 0.16
AUCGAGCAAUAUUACGCUGA		-1.82 ± 0.32
GAUCAGCAAUAUUACGAAAC	-0.961 ± 0.39	0.628 ± 0.41
GACGAGCAAUAUUACGCGCG	-3.15 ± 0.16	-2.7 ± 0.25
CUUGAGCAAUAUUACGAGAC	-2.12 ± 0.33	
CUUGAGCAAUAUUACGCGGA	-2.71 ± 0.33	-3.47 ± 0.31
CUUAAGCAAUAUUACGGGGU	-3.09 ± 0.15	-3.33 ± 0.29
UAUUAGCAAUAUUACGGACC	-1.51 ± 0.43	
AAGGAGCAAUAUUACGCGUG	-4.9 ± 0.45	-2.1 ± 0.18
CCAUAGCAAUAUUACGUGGU	-4 ± 0.23	-1.73 ± 0.13
UUUCAGCAAUAUUACGUACG	-0.905 ± 0.12	-0.18 ± 0.11
